{"source": "paper doi:10.1101/2020.12.09.417477", "about": "(bioRxiv, 2020)", "binders": {"B1": {"name": "CobB (enzyme, E. coli, UniProt P75960 1-279, looked up)", "chain": "MLSRRGHRLSRFRKNKRRLRERLRQRIFFRDKVVPEAMEKPRVLVLTGAGISAESGIRTFRAADGLWEEHRVEDVATPEGFDRDPELVQAFYNARRRQLQQPEIQPNAAHLALAKLQDALGDRFLLVTQNIDNLHERAGNTNVIHMHGELLKVRCSQSGQVLDWTGDVTPEDKCHCCQFPAPLRPHVVWFGEMPLGMDEIYMALSMADIFIAIGTSGHVYPAAGFVHEAKLHGAHTVELNLEPSQVGNEFAEKYYGPASQVVPEFVEKLLKGLKAGSIA"}, "B2": {"name": "acetylated CobB (enzyme, E. coli, UniProt P75960 1-279, looked up)", "chain": "B1 chain", "modifications": "acetyl-lysines (acetylated in vitro with acetyl phosphate); positions are in Supplementary Table 2"}}, "test_in_all_cases": "pull-down", "key": {"His-Prs-K231A": {"biological_target": "His-Prs-K231A (E. coli, UniProt P0A717 1-315, K231A)"}, "His6-Prs": {"biological_target": "His6-Prs (E. coli, UniProt P0A717 1-315)"}, "His-Prs-K182A": {"biological_target": "His-Prs-K182A (E. coli, UniProt P0A717 1-315, K182A)"}, "His-PrsK194A": {"biological_target": "His-PrsK194A (E. coli, UniProt P0A717 1-315, K194A)"}}}
{"binder": "B1", "values": [{"measurement": "binding result", "setting": "His-Prs-K231A", "value": "binds"}, {"measurement": "binding result", "setting": "His6-Prs", "value": "binds"}, {"measurement": "binding result", "setting": "His-Prs-K182A", "value": "binds"}, {"measurement": "binding result", "setting": "His-PrsK194A", "value": "binds"}]}
{"binder": "B2", "values": [{"measurement": "binding result", "setting": "His6-Prs", "value": "binds"}]}
